B1: Proteinase K: protease, applied alone as control after thermal inactivation (protein, UniProt P06873 106-384, looked up)
Proteinase K: AAQTNAPWGLARISSTSPGTSTYYYDESAGQGSCVYVIDTGIEASHPEFEGRAQMVKTYYYSSRDGNGHGTHCAGTVGSRTYGVAKKTQLFGVKVLDDNGSGQYSTIIAGMDFVASDKNNRNCPKGVVASLSLGGGYSSSVNSAAARLQSSGVMVAVAAGNNNADARNYSPASEPSVCTVGASDRYDRRSSFSNYGSVLDIFGPGTSILSTWIGGSTRSISGTSMATPHVAGLAAYLMTLGKTTAASACRYIADTANKGDLSNIPFGTVNLLAYNNYQA
modifications: heat-inactivated
B2: Trypsin: protease, applied alone as control after neutralization with 1.25% FCS (protein, UniProt P00760 24-246, looked up)
Serine protease 1: IVGGYTCGANTVPYQVSLNSGYHFCGGSLINSQWVVSAAHCYKSGIQVRLGEDNINVVEGNEQFISASKSIVHPSYNSNTLNNDIMLIKLKSAASLNSRVASISLPTSCASAGTQCLISGWGNTKSSGTSYPDVLKCLKAPILSDSSCKSAYPGQITSNMFCAGYLEGGKDSCQGDSGGPVVCSGKLQGIVSWGSGCAQKNKPGVYTKVCNYVSWIKQTIASN

Tested on: C. albicans
Assay: Broth microdilution, impact of protease inactivation conditions (growth %)
Assay type: cell-based, Candida albicans

| Molecule | Growth [%] (0.125 µM protease alone + 100 °C, 15 min) | Growth [%] (0.125 µM protease alone + 1.25 % FCS) |
| --- | --- | --- |
| B1 | 86 ± 4.5% | – |
| B2 | – | 136.7 ± 14% |

Source: PMC8226839, “New Perspectives in the Antimicrobial Activity of the Amphibian Temporin B: Peptide Analogs Are Effective Inhibitors of Candida albicans Growth” (Journal of Fungi, 2021)
